Source: PMC12350152 (Nature Structural & Molecular Biology, 2025)
Values belong to the binder of their own block, whether it stands above or below them.

What was measured:
[1] = biological target: Pfs48/45 D1D2 (domains 1 and 2, aa 27–294), native sequence (Plasmodium falciparum (isolate 3D7)., UniProt Q8I6T1); assay: BLI
[2] = biological target: T1, Pfs48/45 fragment containing D3 (ELISA antigen) (Plasmodium falciparum, strain not …); assay: ELISA
T1 chain: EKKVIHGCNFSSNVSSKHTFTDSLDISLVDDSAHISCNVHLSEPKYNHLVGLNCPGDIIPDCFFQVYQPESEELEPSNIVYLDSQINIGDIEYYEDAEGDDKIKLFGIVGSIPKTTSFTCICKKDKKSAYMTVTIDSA

[3] = biological target: recombinant full-length Pfs48/45 (ELISA antigen) (Plasmodium falciparum, strain not …, UniProt Q8I6T1); assay: ELISA
Sequence of recombinant full-length Pfs48/45 (ELISA antigen) (Q8I6T1 28-426): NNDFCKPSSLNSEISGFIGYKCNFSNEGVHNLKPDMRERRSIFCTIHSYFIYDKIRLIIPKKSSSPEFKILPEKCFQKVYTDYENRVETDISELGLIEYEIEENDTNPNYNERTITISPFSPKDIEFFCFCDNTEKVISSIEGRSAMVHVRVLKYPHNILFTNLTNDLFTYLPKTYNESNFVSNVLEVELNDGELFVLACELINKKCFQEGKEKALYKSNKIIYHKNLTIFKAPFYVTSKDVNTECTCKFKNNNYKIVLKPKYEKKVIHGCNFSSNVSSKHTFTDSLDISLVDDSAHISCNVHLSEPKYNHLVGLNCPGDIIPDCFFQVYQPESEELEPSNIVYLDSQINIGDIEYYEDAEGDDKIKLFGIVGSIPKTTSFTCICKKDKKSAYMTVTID

[4] = biological target: Pfs48/45 on live female Pf NF54 gametes (Plasmodium falciparum NF54 (3D7 is its …, UniProt Q8I6T1)); assay: flow cytometry on cells
Sequence of Pfs48/45 on live female Pf NF54 gametes (Plasmodium falciparum NF54 (Q8I6T1 28-426): as above

Sequence of Pfs48/45 D1D2 (domains 1 and 2, aa 27–294), native sequence (Q8I6T1 27-294): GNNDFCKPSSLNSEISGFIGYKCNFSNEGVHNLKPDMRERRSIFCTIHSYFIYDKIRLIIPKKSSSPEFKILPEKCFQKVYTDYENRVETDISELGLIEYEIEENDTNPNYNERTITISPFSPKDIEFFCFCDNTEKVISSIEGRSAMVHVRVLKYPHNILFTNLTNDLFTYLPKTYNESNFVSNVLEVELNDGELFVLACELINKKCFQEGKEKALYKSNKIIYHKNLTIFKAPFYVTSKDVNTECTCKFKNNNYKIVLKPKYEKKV

binding result [1]: binds
B1: 10D8 Fab (Fab, V domains shown)
VH: EVMLVESGGDLVKPGGSLKVSCAASGFTFSNYAMSWVRQTPEKRLEWVATISSGASYTHYPDSVKGRFTISRDNAKNTLYLQMSSLRSEDTAMYYCGRQVNRHDRALDAMDYWGQGTSVTVSP
VL: not shown

binding result [2]: binds
binding result [3]: binds
binding result [4]: binds
B2: RUPA-44 mAb (IgG) (antibody, V domains shown)
VH: QLQLQESGPGLVKPSETLSLTCTVSGGSISRSPYYWGWIRQPPGKGLEWFGSIYNNGSTYYNPPLKSRLTISVDTSKNQFSLKLSSVTAADTAVYYCARHGGSTGMKVVVIAPPDYWGQGTLVTVSS
VL: DIQMTQSPATLSASVGDRVTITCRASQSISSWLAWYQQKPGEAPKLLIYKASSLQSGVPSRFSGSGSGTKFSLTISSLQPDDFATFYCQQYHSYPYTFGQGTKLEIK
